Measurements from PMC7145517.

Tests used:
[1] = target: Myceliophteria thermophila RbBP5 β-propeller domain (residues 1-347); experiment: ITC; conditions: parent: 0.25
[2] = target: Myceliophteria thermophila RbBP5 β-propeller domain (residues 1-347) (Myceliophteria thermophila); experiment: ITC; VP-ITC; CtCfp1 RID (350 μM) injected into MtRbBP5 β-propeller (35 μM); 20°C; 50 mM Tris pH 8.0, 200 mM NaCl, 2.5 mM β-mercaptoethanol

| Kd [1] [µM] | fold loss in binding against wild-type Cfp1 [2] [fold] | Substance |
| --- | --- | --- |
| 4.06 |  | Chaetomium thermophilum Cfp1 RID domain (residues 322-508) Y380A |
|  | 20 | Chaetomium thermophilum Cfp1 RID domain, Tyr380 substituted by an alanine (domain or fragment) |
